Laboratory results taken from PMC5671938, “Multimerin-2 is a ligand for group 14 family C-type lectins CLEC14A, CD93 and CD248 spanning the endothelial pericyte interface” (Oncogene, 2017).

Molecular target: T1, recombinant CLEC14A extracellular domain with an Fc tag (CLEC14A-ECD-Fc) (human, UniProt Q86T13 22-397)
T1 construct: CLEC14A, human, extracellular domain; Human IgG Fc alone served as the control for the Fc tag; also called hCLEC14A-ECD-Fc; CLEC14A-Fc
T1 sequence (looked up): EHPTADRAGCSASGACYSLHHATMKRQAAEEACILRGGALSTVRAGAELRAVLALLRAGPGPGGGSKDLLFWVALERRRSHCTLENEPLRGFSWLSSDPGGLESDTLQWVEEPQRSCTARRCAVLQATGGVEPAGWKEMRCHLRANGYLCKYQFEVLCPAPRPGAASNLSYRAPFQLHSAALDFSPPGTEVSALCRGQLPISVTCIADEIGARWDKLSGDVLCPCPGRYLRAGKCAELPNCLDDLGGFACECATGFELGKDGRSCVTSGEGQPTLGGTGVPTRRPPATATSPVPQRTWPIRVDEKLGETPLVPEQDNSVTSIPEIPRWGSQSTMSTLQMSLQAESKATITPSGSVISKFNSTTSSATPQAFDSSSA
Test: flow cytometry on cells; blocking: hCLEC14A-ECD-Fc incubated with 2 x molar excess of MMRN2^495-674 or MMRN2^495-603 for 1 h at 4 °C, then used to stain the HUVEC surface; anti-hFc-FITC
Details: both partners purified

B1: MMRN2^495-674 expressed and purified from E. coli (blocking experiments) (domain or fragment, human, UniProt Q9H8L6 495-674, looked up)
chain: QKLYLDLDVIREGQRDATRALEETQVSLDERRQLDGSSLQALQNAVDAVSLAVDAHKAEGERARAATSRLRSQVQALDDEVGALKAAAAEARHEVRQLHSAFAALLEDALRHEAVLAALFGEEVLEEMSEQTPGPLPLSYEQIRVALQDAASGLQEQALGWDELAARVTALEQASEPPRP
notes: codon optimized synthetic DNA in pET23a between NdeI and NotI; The fragment was made 'with His tag or avitag'; also called MMRN2 peptide; source: E. coli BL21-DE3 pLysS, purified (Nickel-NTA, size exclusion chromatography), endotoxin removed
- binding result: binds
